B1: TPR t1 (parent)
chain: GACCAAUCUGCCCUCAGAGCUCGAGAACAUCUUCGGAUGCAGAGGAGGCAGGCUUCGGUGGCGCGAUAGCGCCAACGUCCUCAACCUCCAAUGCAUCCCACCACAUGAUGAUGCCUGAAGAGCCUUGGUUUUUUG

Variants of: B1
Assay: polymerase ribozyme fitness, log enrichment relative to wild type (log ratio); higher = more active; in vitro selection for triplet polymerase activity
Outline: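 Mutant libraries of each subunit of a heterodimeric triplet polymerase ribozyme were built by PCR and transcribed. Each library went through one round of in vitro selection in triplicate: annealing with biotinylated primer, partner subunit and triplets, frozen incubation at −7 °C, gel excision of extended constructs, streptavidin-bead capture and RT-PCR. Input and output libraries were Illumina-sequenced; only genotypes with ≥10 input reads and ≥1 read per output were kept. Fitness is log2(genotype enrichment/wild-type enrichment), using inverse-variance-weighted replicate averages.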

| Variant | polymerase ribozyme fitness (log ratio) |
| --- | --- |
| GCCCAAUCUGCCCUCAGAGCUCGAGAACAUCUUCGGAUGCAGAGGAGGCAGGCUUCGGUGGCGCGAUAGCGCCAACGUCCUCAACCUCCAAUGCAUCCCACAACAUGAUGAUGCCUGAAGAGCCUUGGUUUUUUG [A2C C102A] | -3.35 |
| GCCCAAUCUGCCCUCAGAGCUCGAGAACAUCUUCGGAUGCAGAGAAGGCAGGAUUCGGUGGCGCGAUAGCGCCAACGUCCUCAACCUCCAAUGCAUCCCACCACAUGAUGAUGCCUGAAGAGCCUUGGUUUUUUG [A2C G45A C53A] | -1.45 |
| GCCCAAUCUGCCCUCAGAGCUCGAGAACAUCUUCGGAUGCAGAGGAGGCAGGCUUCGGUGGCGCGAUAGCGCCAACGUCCUCAACCUCCAAUGCAUCCCACCACAUGAUGAUGCCUGAAGAGACUUGGUUUUUUG [A2C C123A] | -0.696 |
| GCCCAAACUGCCCUCAGAGCUCGAGAACAUCUUCGGAUGCAGAGGAGGUAGGCUUCGGUGGCGCGAUAGCGCCAACGUCCUCAACCUCCAAUGCAACCCAACACAUGAUGAUGCCUGAAGAGCCGUGGUUUUUUG [A2C U7A C49U U96A C101A U125G] | -3.99 |
| GCCCAAUCUGCCCUCAGAGCUCGAGAACAUCUUCGGAUGCAGAGGAUGCAGGCUUCGGUGGCGCGAUAGCGCCAACGCCCUCAACCUCCAAUGCAUCCCACCACAUGAUGACGCCUGAAGAGCCUUGGUUUUUUG [A2C G47U U78C U112C] | -1.88 |
| GCCCAAUCUGCCCUCAGAGCUCGAGAACAUCUUCGGAUGCAGAGGAGGAAGGCUUCGGUGGCGCGAUAGCGCCAACGUCCUCAACCUCCAAUGCAUCCCACCACAUGAUGAUGCCUGAAGAGCCUUGGUUUUUUG [A2C C49A] | -1.83 |
| GCCCAAUCUGCCCUCAGAGCUCGAGAACAUCUUCGGAUGCAGAGGAGGCAGGCUUCGGUGGCGCGAUAGCGCCAACGUCCUCAACCUCCAAUGCAUCCCACCACAUGAUGAUGCCUUAAGAGCCUUGGAUUUUUG [A2C G117U U129A] | -4.64 |
| GCCCAAUCUGCCCUCAGAGCUCGAGAACAUCUUCGGAUGCAGAGGAGGCAGGCUUCGGUGGCGCGAUAGCGACAACGUCCUCAACCUCCAAUGCAUCCCACCACAUGAUGAUGCCUGAAGAGCCUUGGUUUUUUG [A2C C72A] | -2.14 |
| GCCCAAUCUGCCCUCAGAGCUCGAGAACAUCUUCGGAUGCAGAGGAGGCAGGCUUCGGUGGCUCGAUAGCGCCAACGUCCUCAACCUCCAAUGCAUCCCACCACAUGAUGAUGCUUGAAGAGCCUUGGUUUUUUG [A2C G63U C115U] | -4.82 |
| GCCCAAUCUGCCCUCAGAGCUCGAGAACAUCUUCGAAUGCAGAGGAGGCUGGCUUCGGUGGCGCGAUAGCGCCAACAUCCUCAACCUCCAAUGCAUCCCACCACAUGAUGAUGCCUGAAGAGUCUUGGUUUUUUG [A2C G36A A50U G77A C123U] | -2.76 |
| GCCCAAUCUGCCCUCAGAGCUCGAGAACAUCUUCGGAUGCAGAGGAGGCAGGCUUCGGUGGCGCGAUAGCGCCAACGUCCUCAAUCUCCAAUGCAUCCCACCACAUGAUGAUGCCUGAAGAGCCUUGGUUUUUUG [A2C C85U] | -3.37 |
| GCCCAAUCUGCCCUCAGAGCUCGAGAACAUCUUCGGAUGCAGAGGAGGCAGGCUUCCGUGGCGCGAUAGCGACAACGUCCUCAACCUCCAAUGCAUCCCAACACAUGAUGAUGCCUGAAGAGCCUUGGUUUUUUU [A2C G57C C72A C101A G135U] | -3.06 |
| GCCCAAUCUGCCCUCAGAGCUCGAGAACAUCUUCGGAUGCAGAGGAGGCAGGCUUCGGUGGCGCGAUAGCACCAACGUCCUAAACCUCCAAUGCAUCCCACCACAUGAUGAUGCCUGAAGAGCCUUGGUUUUUUG [A2C G71A C82A] | -2.88 |
| GCCCAAUCUGCCCUCAGAGCUCGAGAACAUCUUCGGAUGCAGAGGAGGCAGGCUUCGGUGGCUCGAUAGCGCCAACGUCCUCAACCUCCAAUGCAUCCCACCACAUGAUGAUGCCUGAAGAGCCUUGGUUUUUUG [A2C G63U] | -2.33 |
| GCCCAAUCUGCCCUCAGAGCUCGAGAACAUCUUCGGAUGCAGAGGAGGCAGGAUUCGGUGGCGCGAUAGCGCCAACGUCCUCAACCUCCAAUGCAUCCCACCACAUGAUGAUGCCUGAAGAGCCUUGGUUUUUUG [A2C C53A] | -1.9 |
| GCCCAAUCUGCCCUCAGAGCUCGAGAACAUCUUCGGAUGCAGAGGAGGCAGGCUUCGGUGGCGCGAUAGCGCCAAUGUCCUCAACCUCCAAUGCAUCCCACCACAUGAUGAUGCCUGAAGAGCCUUGGUUUUUUG [A2C C76U] | -2.06 |
| GCCCAAUCUGCCCUAAGAGCUCGAAAACAUCUUCGGAUGCAGAGGAGGCAGGCUUCGGUGGCGCGAUAGCUCCAACGUCUUCAACCUCCAAUGCAUCCCACCACAUGAUGAUGCCUGAACAGCCUUGGUUUUUUC [A2C C15A G25A G71U C80U G120C G135C] | -4.64 |
| GCCCAAUCUGCCCUCAGAGCUCGAGAACAUCUUCGGAUGCAGAGGAGGCAGGCUUCGGUGGCGCGAUAGCGCCAACGUACUCAACCUCCAAUGCAUCCCACCACAUGAUGAUGCCUGAAGAGCCUUGGCUUUUUG [A2C C79A U129C] | -2.39 |
| GCCCAAUCUGCCUUCAGAGCUCGAGAACAUCUUCGGAUGCAGAGGAGGCAGGCUUCGGUGGCGCGAUAGCGCCAACGUCCUCAACCUCCAAUGCAUCCCACCACAUGAUAAUGCCUGAAGAGCCUUGGUUUUUUG [A2C C13U G110A] | -2.59 |
| GCCCAAUCUGCCCUCAGAGCUCGAGAACAUCUUCGGAUGCAGAGGAGGCAGGCUUCGGUGGCGCGAUACCGCCAACGUCCUCAACCUCCAAUGCAUCCCACCACAUGAUGAUGCCUGAAGUGCCUUGGUUUUUUG [A2C G69C A121U] | -0.282 |
| GCCCAAUCUGCCCUCAGAGCUCGAGAACAUCUUCGGAUGCAGAGGAGGGAGGCUUCGGUGGCCCGAUAGCGCCUUCGUCCUCAACCUCCAAUGCAUCCCACCACAUGAUGAUGCCUGAAGAGCAUUGGUUUUUUG [A2C C49G G63C A74U A75U C124A] | -3.35 |
